Test results: patent US20100317830A1, “BACE455, AN ALTERNATIVE SPLICE VARIANT OF THE HUMAN BETA-SECRETASE” (EXONHIT THERAPEUTICS SA, priority 2003, published 2010)

What was measured:
[1] = test system: endogenously expressed APP isoforms in SH-SY5Y cells; assay: Western blot of C99 fragment generation in transfected SH-SY5Y cells; format: cell-based, human
Protocol: SH-SY5Y cells for transfection were grown to 80% confluence in Dulbecco's modified Eagle's medium (DMEM) with 10% fetal bovine serum. Transfections were performed using LipofectAmine Plus (Gibco-BRL) with […] per 10*10<6>cells. Three days posttransfection, cells were passaged into medium containing G418 at a concentration of 400 μg/ml. After twenty days growth in selective medium, individual clones were selected and plated into each well of one 96 well plate containing growth medium plus G418. Clones were expanded from the 96 well plate to a 24 well plate and then to a 6 well plate. Clones which had lost initial neuronal-like morphology were not amplified. BACE455 or BACE501 expression in selected clones was assayed by Western Blotting and immunohistochemical analysis using Cterminal-specific antibody.
Cells were harvested 3 days after plating. Cells were washed twice with PBS and lysed in 1 ml CellLytic solution (Sigma) plus protease inhibitors cocktail (Roche Diagnostics) for 15 min. […] Following electrotransfer of the separated polypeptides to PVDF membranes, APP and C99 proteolytic fragment were detected with C-terminal-specific rabbit anti-APP antibody (Serotec, UK) at 1/500 in PBS-Tween 20 0.1%, and the antibody-antigen complexes were visualized using alkaline phosphatase conjugated goat anti-rabbit antibodies (1/5000). […]

[2] = test system: endogenously expressed APP in SH-SY5Y cells; assay: Aβ1-40 double antibody sandwich ELISA on conditioned medium of transfected SH-SY5Y cells; format: cell-based, human; details: SH-SY5Y cells transfected with BACE construct; control = empty vector, set as 100%
Protocol: Cells were harvested 3 days after plating and processed for Western Blotting experiments as described above.
Cell culture supernatants harvested 72 hours after plating were analyzed in a standard double antibody isoform-specific Aβ1-40 ELISA (BioSource International) as follows. […] The detecting antibody is specific for Abeta 1-40 and the conjugated secondary antibody is an anti-rabbit IgG conjugated to horseradish peroxydase. Synthetic human Aβ1-40 standard peptides are serially diluted in the supplied sample diluent for the generation of standard curves.
Human Abeta 1-40 standards were added after washing the plate, as well as 100 μl/well of sample, e.g., conditioned medium of transfected cells. The plate was incubated at 4[deg.] C. overnight. The next day, after washing the plate four times, 100 μl/well rabbit detection antibody was added and incubated for 2 hours on an orbital plate shaker at 20 degree C. […] 100 μl/well stop solution was added and absorbance of each well was read at 450 nm within two hours, with a solution of 100 μl each of chromogen and stop solution as the blank. […] The samples with absorbance values falling within the standard curve were extrapolated (by comparison to the values obtained for the A-β40 and A-β42 standard peptides analyzed on the same plate) from the standard curves and expressed in pg/ml culture medium.

Row | Molecule | C99 production ([1]; SH-SY5Y cells transformed with the BACE455 construct vs empty vector) | APP levels ([1]; overexpression of BACE455 in SH-SY5Y cells) | Aβ release (% of control) [2]
1 | BACE455: new isoform of human beta-secretase (BACE) lacking exon 4, 455 amino acid residues, SEQ ID NO: 2 (protein, listed as Homo sapiens) MAQALPWLLLWMGAGVLPAHGTQHGIRLPLRSGLGGAPLGLRLPRETDEEPEEPGRRGSFVEMVDNLRGKSGQGYYVEMTVGSPPQTLNILVDTGSSNFAVGAAPHPFLHRYYQRQLSSTYRDLRKGVYVPYTQGKWEGELGTDLVSIPHGPNVTVRANIAAITESDKFFINGSNWEGILGLAYAEIARIIGGIDHSLYTGSLWYTPIRREWYYEVIIVRVEINGQDLKMDCKEYNYDKSIVDSGTTNLRLPKKVFEAAVKSIKAASSTEKFPDGFWLGEQLVCWQAGTTPWNIFPVISLYLMGEVTNQSFRITILPQQYLRPVEDVATSQDDCYKFAISQSSTGTVMGAVIMEGFYVVFDRARKRIGFAVSACHVHDEFRTAAVEGPFVTLDMEDCGYNIPQTDESTLMTIAYVMAAICALFMLPLCLMVCQWRCLRCLRQQHDDFADDISLLK | strongly increased | no influence | 199.95+18 % of control
2 | BACE501: native full-length human BACE isoform (variant a), NM_012104 (protein, UniProt P56817 1-501, looked up, full-length, native full-length human BACE isoform (variant a), NM_012104) MAQALPWLLLWMGAGVLPAHGTQHGIRLPLRSGLGGAPLGLRLPRETDEEPEEPGRRGSFVEMVDNLRGKSGQGYYVEMTVGSPPQTLNILVDTGSSNFAVGAAPHPFLHRYYQRQLSSTYRDLRKGVYVPYTQGKWEGELGTDLVSIPHGPNVTVRANIAAITESDKFFINGSNWEGILGLAYAEIARPDDSLEPFFDSLVKQTHVPNLFSLQLCGAGFPLNQSEVLASVGGSMIIGGIDHSLYTGSLWYTPIRREWYYEVIIVRVEINGQDLKMDCKEYNYDKSIVDSGTTNLRLPKKVFEAAVKSIKAASSTEKFPDGFWLGEQLVCWQAGTTPWNIFPVISLYLMGEVTNQSFRITILPQQYLRPVEDVATSQDDCYKFAISQSSTGTVMGAVIMEGFYVVFDRARKRIGFAVSACHVHDEFRTAAVEGPFVTLDMEDCGYNIPQTDESTLMTIAYVMAAICALFMLPLCLMVCQWRCLRCLRQQHDDFADDISLLK |  |  | 193.15 ± 2.73 % of control
